# Assay results from patent US10874712B2, “Methods, compounds and compositions for modulating blood brain barrier integrity and re-myelination” (University Health Network, priority 2015, dated 2020).
# Key:
# [1] = tested on: splenocytes and lymph node cells of EAE-induced mice; assay: Flow cytometry of splenocytes and lymph node cells of treated EAE mice; type: in vivo, mouse
# Method: Mice were euthanized at day 10 post-induction of EAE. Freshly isolated spleens and draining caudal lymph nodes (LN) were pressed using a syringe plunger through a 70 μm cell strainers and washed twice using 2 mL of 2% FBS in complete RPMI-1640 medium (Invitrogen) supplemented with […], L-glutamine, p/s, and non-essential amino acids. Single-cell suspensions were lysed with 7 mL of red blood cell (RBC) lysing buffer (Life Technologies) and centrifuged at 700 rcf for 5 mins. After washing three times with 2% RPMI-1640 medium, cells were counted and cultured as described below or were subjected to cell surface staining.
# The expression of cell-surface markers and cytokine expression on splenocytes and LN cells were characterized by flow cytometry. For analysis of naïve cells, 5×10^5 RBC depleted splenocytes and LN cells were plated in 96-well V-bottom plates (Starstedt) and blocked with 50 μl of 1% mouse IgG in 2% FBS PBS supplemented with azide (PFN3) for 20 min at 4° C. Cells were then stained with the following primary conjugated antibodies from BioLegend for 30 min on ice: CD5 (53-7.3), CD3 (145-2C11), CD4 (GK1.5), CD8 (53-6.7), CD19 (6D5), CD11b (M1/70), CD11c (N418), CD80 (16-10A1), CD86 (GL-1), CD44 (IM7), MHCII (M5/114.15.12), CD62L (MEL-14), ICAM-1/CD54 (3E2), IL-17A (TC11-18H10.41), IFN-γ (XMG1.2). All antibodies were re-suspended in PFN3. When required, cells were washed twice with 100 μl of PFN3 and stained with secondary SA-APC, SA-APC-Cy7, SA-PeCy7, or SA-Percp-Cy5.5 for 30 min on ice. Cells were then washed twice with PFN3 and re-suspended in a PFN3 solution containing propidium iodide (PI) before proceeding to FACS analysis.
# To examine intracellular cytokine production, 0.5×10^6 RBC-depleted splenocytes and LN cells were plated on 96-well flat bottom plates (BD Biosciences) in 10% FBS in complete RPMI-1640 in the presence of 0.5 μg/mL phorbol 12-myrisate 13-acetate (PMA), 0.5 μg/mL Ionomycin, and Golgistop (BD Biosciences) for 4 h. Cells were subsequently washed in PBS and stained with Near-Infrared Live Dead (Life Technologies) as described in the manufacturer's protocol. Cells were then washed twice in PFN3 and stained for cell surface markers as described previously. Cells were then fixed with 100 μl of Cytofix/Cytoperm solution as per manufacturer's protocol. For intracellular staining, cells were then stained with anti-IL-17A, and anti-IFN-γ for 30 min on ice, washed twice, and re-suspended in PFN3 before proceeding to FACS acquisition. Nonspecific background staining was determined by using fluorochrome-matched isotype antibodies and fluorescence minus one control. […] For each experiment, at least 100,000 live events were acquired and analyzed using Flowjo software (Tree Star Inc.).
# [2] = tested on: EAE-induced mice; assay: Experimental Autoimmune Encephalomyelitis (EAE) mouse model, body condition score; type: in vivo; parameters: clinical severity (body condition score): dose or concentration left out as unconfirmed
# [3] = tested on: rats subjected to MCAO; assay: Middle Cerebral Artery Occlusion (MCAO), Evans Blue BBB integrity; type: in vivo, rat; conditions: daily tail vein injection of 70 μg, seven days following MCAO
# Method: The possibility that RGMc may also restore BBB integrity following stroke was also tested. Middle Cerebral Artery Occlusion (MCAO) was performed in rats, which were treated with a daily tail vein injection of 70 μg of RGMc or PBS (control). Seven days following MCAO, animals received injection of Evans blue to monitor BBB integrity (FIG. 24). To measure BBB integrity, the amount of Evans Blue Dye/g of brain tissue was measured. […] This effect was also quantitated: brains were homogenized and the amount of Evans Blue quantified per gram of wet brain (FIG. 24, B).
# [4] = tested on: mouse cerebellar organotypic cultures; assay: Remyelination in lysolecithin-demyelinated cerebellar organotypic cultures (MBP staining); type: cell-based; conditions: sRGMc 500 ng/ml for 14 days after lysolecithin
# Method: To assess the ability of sRGMc to function as a remyelinating agent, its function in in vitro cerebellar explant cultures was investigated. Briefly, cultures were demyelinated using lysolecithin, a detergent, and then cultured in the presence of sRGMc for 14 days.
# Myelination-demyelination-remyelination studies were performed in mouse cerebellar organotypic cultures. The cerebella of postnatal 6 day old pups were dissected and sectioned at 400 μm thickness using vibratome. Cerebellar sections were then plated on insert plates (Corning, Wilkes Barre, Pa.) and allowed to attach. Media was replaced every 2-3 days and cultures were maintained for 7 days. To induce demyelination, 0.5 mg/ml lysolecithin (1′-monoacyl-1-3-glycerylphosphorylcholine; Sigma) was added to the culture medium for 18 hr, after which it was removed and replaced with fresh medium containing sRGMc (500 ng/ml) or control protein and the cultures maintained for 14 more days. Media was replaced every 2-3 days. Demyelination-remyelination was assessed by staining explants with myelin basic protein antibody MBP (Cell Signaling).
# [5] = tested on: optic nerves of adult mice; assay: Optic nerve crush and regeneration model (GAP43 staining); type: in vivo, mouse; conditions: 1 μg/ml intraocularly at 3 and 10 days after injury; day 21; vs control proteins
# Method: Optic nerve crush experiments were performed on animals and recovery assessed by staining for axonal fibres. The optic nerves of adult mice were crushed using fine self-closing forceps. sRGMc (1 μg/ml) or control solution was injected intraocularly at 3 and 10 days after injury. Animals were sacrificed at day 21 and optic nerves were dissected and fixed in 4% PFA. The optic nerves were sectioned longitudinally at 14 microns and stained with GAP43 antibody to stain newly regenerating axons.
# [6] = intra-peritoneal injections, vs vehicle
molecule,measurement,setting,value
"sRGMc: truncated form of RGMc with the GPI anchor sequence removed, released as a soluble protein (SEQ ID NOs: 1 and 3) (protein, listed as Homo sapiens) CKILRCNAEYVSSTLSLRGGGSSGALRGGGGGGRGGGVGSGGLCRALRSYALCTRRTARTCRGDLAFHSAVHGIEDLMIQHNCSRQGPTAPPPPRGPALPGAGSGLPAPDPCDYEGRFSRLHGRPPGFLHCASFGDPHVRSFHHHFHTCRVQGAWPLLDNDFLFVQATSSPMALGANATATRKLTIIFKNMQECIDQKVYQAEVDNLPVAFEDGSINGGDRPGGSSLSIQTANPGNHVEIQAAYIGTTIIIRQTAGQLSFSIKVAEDVAMAFSAEQDLQLCVGGCPPSQRLSRSERNRRGAITIDTARRLCKEGLPVEDAYFHSCVFDVLISGDPNFTVAAQAALEDARAFLPDLEKLH",expression profile of IL-17 and IFN-γ secreted by CD4+ T cells,"[1]; PMA and ionomycin stimulated, EAE mice day 10",no effect
same,expression of adhesion markers (ICAM-1 and CD62L) on CD4+ and CD8+ T cells and B cells,"[1]; naive splenocytes and lymph node cells, vs vehicle",does not affect
same,"distribution of effector cells (CD3+, CD8+, CD4+ T cells)","[1]; splenocytes day 10, vs vehicle",does not alter
same,"distributions and activation of dendritic cells (CD11c+) and B cells (MHC II, CD80+/CD86+)","[1]; splenocytes day 10, vs vehicle",unaltered
same,disease severity,[2]; [6],significantly abrogated disease severity
same,incidence of EAE onset,[2]; [6],decreased the incidence of EAE onset
same,onset of disease,[2]; [6],delayed the onset of disease
same,day by which treated animals developed clinical symptoms,"[2]; intravenous sRGMc at days 3, 6 and 9",≤ 14 day post-induction
same,clinical severity of the disease (body condition score),"[2]; intravenous sRGMc at days 3, 6 and 9 post-induction, vs vehicle, scored 18 days",significant decrease in clinical severity
same,clinical severity (body condition score),"[2]; sRGMc every three days, vs PBS, FIG. 6B",markedly reduced
same,reduction in Evans Blue levels in the brain compared to PBS-treated animals,[3],3 fold
same,"Evans Blue extravasation into the CNS, visual inspection",[3]; vs control,strongly reduced
same,remyelination (myelin basic protein staining),[4],promote remyelination
same,regeneration of axonal fibres at the site of injury (GAP43),[5],promote the regeneration of axonal fibres
